Reference: the supplement of paper PMC12636428

Each sequence was assayed on Saccharomyces cerevisiae (assay: transcriptional activation domain activity (GFP:mCherry ratio, weighted mean of sorted bins, harmonized to initial dataset scale) (arbitrary fluorescence ratio units); higher = stronger transcriptional activation). Conditions: beta-estradiol 1 µM; induction time 4 h.
Summary of the method: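 Protein tiles carrying barcodes and fused to an estradiol-inducible synthetic transcription factor were placed at the URA3 locus of yeast diploids with a GFP reporter. Following 4 hours at 30 °C in SC with 1 uM beta-estradiol, cells were sorted into 8 GFP:mCherry bins, barcodes were sequenced, and tiles with fewer than 50 reads were discarded. Activation activity is given as the read-weighted mean of bin median fluorescence, averaged across barcodes and linearly mapped to the initial dataset scale.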

Sequence | transcriptional activation domain activity
GKPGGGEAKTGERKGEGRGGRGKGGPGGKKDGPPPGEGKGAVVASAASTSATP | 34700
MEHQDFFGFDYGLFDDNFPITSNSLRYDDLFHFEPLDLEQDDLGWGLPDPSLS | 143000
MSLKRRAHRKSRNGCRECKRRRIKCDETKPHCGHCVRHGIHCVYPESAGASPA | 43000
QCAYVLEHCMDATPGIFNYIQLYYCSPVRPLVFVLLCAWLLFLFGFVGIAASD | 23300
RISGRVIWSLLICHASWYLNFFIQVGVLSKRLSSPVVLCGVVSFQLLNILLIT | 53000
MQQLFTFGSLFFPSFHPFFFFFFFFCHPSFLFFFLPSFLPFFLFFFLPSFLPF | 58000
TCRHSSPHVWWLIFGVLCIMYMMVLEVLLLGFVVLVLAPLVFIFWNLFLICIG | 52700
MPCLCHFWMTCLCHFRMPLFFYFQMPCLCHFWMTCLCHFLMPCLFYFWMPFLC | 43200
MPVGIVLQLIAAVQYHLYTAMLFTWTDYKTIFFPYLLKCCLWVWVHQLLCNVS | 56900
KQYCVRPNSGRIEAGKEVEVQVLLQAMKEDPPADAKCRDKFLVQSVAISADKE | 17800
IKITKEHKWIIVFKIRYKLFKYLVILFKLTNGASLFSYFINSLLFYNLLNNFY | 54600
PHHKWVVPTPFSSHAFHPVDGWLQSIPYHIFILVFPLHRVLYLVLFVLINFWT | 59200
KNEKADKAEKTEKTEQQQSSGARRNRRGRGGNRGGEGGKESKEGGRPAAAAKT | 11200
RIMLQNAILPWFGKHDLRGKVFGCQIIELFHIFGMSFLNWIWSSGLVLATFPP | 56600
TWPINYRIRYILPLLVIAGYTKETLRLIQCIHQTRSSFFTPHFFRRMLRVLLR | 52500
TAAPYHKLAYHPALSPKISLGFWPFQHILTFLDYKEYVLQWTLLVTVQIPWFN | 64700
MFVHWAAVFCLFFFCLAIIHPYLPVAFFFCSIYYKPFFLRLPRFLFGFWFFFS | 47700
KMVHRPLLWYFTVFLVDMYTALRLFRLGFRHYAPRTQTRSWFRVFPPRPFTWV | 71700
VFLFLLTYFTIDIGLTNLPPLVIITVYLPHPPPLPDILLYWVLFLCCAVWGAV | 39800
YMGSVNLVHYYGVRTFSFILLGPCLTLVVVYRVLALFQSANQQFYILVLAYIA | 36200
SILASLGFIVCGVYIWVTSHWNPQHVRDGLPLLYFSGHLRCKIYSIVLNLFVT | 69900

Sequence | transcriptional activation domain activity
MVVSLLIIRCHSTASSNRWLLLGYGLHFLIRFFYLITMLLITRLNFVLSFFAA | 81000
MAMGYMRFCALAISILLFREGKELTQRGSCGCLIYVCVRLEVGYYRLVFLIGY | 54700
LLRLLQCVFVAALLLVSKLCTFTEMMPDVVLRQFLVVAIDILFYGKLTIVPWN | 54600
ERRMGTCRSFHLRVGLPQLYAARLLIKASLDVRRLSVWQLGQLVWSIQKFSRQ | 32200
MAKKGSASTDKKAADKSDKKGKAKATTDDGEEKQAKGKGSLKAATAVNVRHIL | 36900
DPFVEQNNDITTALLNNELFQGPSLSDEVTDWFGASEDIGLEFVEPWTELIEQ | 144000
SSTDPTVEPDAPGGSEAEEPAKSETKESPAKKKVVEEEEEEEQKKAEPNGSSS | 30700
MVLLCAYERVGLGRSIGFGIFFFLPLFLLLLLTHFSFLFFFFAFTFILMMACL | 57800
GHSGVSVDMHVSFLNSCREGEKVIIKSVIDKKGSRLAFVRVEIKRERDDAIII | 49500
FYWIPIFRAVGKYKYSNLLNKFLLDLHLRYPKKLQNAIRSNWLCNPSGKKNKF | 64100
MCIKLPLYPASFFIHRSLPLITSVFDLNLTLMVSLCPRIVPISFFACALLLVP | 53000
EYMGKETGSHHLGREGEEKTYAVRRDYESRNRVALTPERNAVEIVRVRTQAAP | 19700
EVYLLRFEQCLTRAMTLIRMFFVGSLRALTQDVSRRLAEKDVSQTAQTHLLYT | 46300
IRWHIREHQLRVLAKFCADRIGDPYVYCPCIIAKGLVLALIRIVSALLEKPAI | 56200
IIFCLGRYGLICSLMYTNTVLIFLPPSRMSAQASLTCQTFASILVFCIVLSAI | 73300
KPLSKRAAPKKAPAKRKSSAGSKSKETSAEPPKKRPAKAKAKPKKEATPASSP | 41900
VVLASSPSSQTTSSTSVVLIFGSDDKRVKEVGEGLKAKLDMRGGGKGTRWSGK | 14200
TTAATEPTKTEAAPPAPATEPAPAAEPAAPAAEPAKEEAKPATEVKPEAPAAA | 24800
HGRARPSRASASVPARKKTKSKVKKRASAAVVGSDDEDGEERPKKRRGGGGGA | 33100
PEPVAAPAPANDGFSEVQHNRGGRGRGGQYQGEGRGGYRGRGRGGPRGGGEFR | 24500
MFFIFFFWFVFFPLTIFLLSSSIFGFLFSSSFLFYYYYFFLWGGRPFIFPFYS | 33300

Sequence | transcriptional activation domain activity
FNNDGWDTSLPIDFDFDEFNTETTDFDDFLKLLGDNSPSKEQKSLSYSPTATG | 162000
NGQRFVQLLCNECGTVLELSVLLASVYLSLNMGDLVRLQPGCLYESQKRQWGP | 16300
TPNNLTSFDDCHLIDGLELTYSDLLVLDDFLAFDFLGLDHFIFMVTPPWENVV | 81000
RRGEGRRGEGRRGEGRRGEGRRGEGRRGEGRGGEGRGGRGGRGRGSSGTGTGS | 28000
VGISLFLIACKLYLTVYYNELLISNPASAKSIYKILEYVNIMVYVSKAFGMYQ | 62800
AGTVPLMIYSTRLARESIGAWRLACLTLFIVTQIRGSVVLLAKSKLWTHILSC | 74600
KDESSSSRRRRGGRSEKEKRERTGDEGDSSSRHRSGRDREGDEEADDDERGSS | 37500
FAFLAPFFCFLFYMSMGFFRLFLFCFLGFGTFVVFNLILVPAFSLYLNHVYLL | 68100
MSFVDLHGIWGFFLPFIFSVINWYLNYVLILTLLFFLCHVRIWVLYLVNIYRE | 55000
LRAIFLALLPVVYYFTYMLVLFLFLLTYYNPFSPFSHAVRPITPPLISIFSSF | 67800
RPDVVLIQAGLWARFWLFIVISHALLEYHTFADGICLCYVSTVVFLIRHAKLW | 68100
EGDRKGRGRGRGRDDRGPRDRNREREDRDEKNDKKRAREEGNDEKPAKNADSK | 54500
LLAWGYVLFNPFAIYSLPYTVLFAFLSLSYLVLTFVLTLPSSLPFYHSKYWFQ | 66900
MTFLHLYFSLSSCLLKTCLSFFVPTPQLLHFTSCIFICFIGTGVFFLYFPFLF | 65700
PPPPPPPPPPPLSLLTTAIPPPPPPPPPLGGGPPPPPPPPPGPGGPPPPPPPP | 30700
MFFLPFGIFFFFACFFSLFTFADSWLAVFLPDRFLLSFVLFNFAFFFFFFTTL | 31900
SFNDTSFLNMEDPIRNEFSFDNGDRAVTDLPRSAHFLSDTGLEGINFSGLNDS | 55200
GDVAATDIGSKGGKKDGKRQKGSAAHVDGEDTSEDKKGAAKTGKRKKGGGAKE | 27200
INILIFICLPYRNFQFFLYLVPMSCSLTPCHWQVIASKLEILLLSTYWITFVA | 61200
MSSPEVNSSQPASSPRKARRYGFACASCKARKVKCSGDQPVCRACRRANESCV | 24300
VLLCQMEDAVLSSSFAIKANTAMSQNTAEEFFNISEEEALNQLLENNNFDAFW | 140000

Sequence | transcriptional activation domain activity
LIFTSVHFLVFNIGDLLGRYLCLVPQLLLWDASKLLTLSLLRTFFIPLFLACN | 38500
KESTTPSGTIKEVEGGEKGEEGTVAKQNNGEKGLVKSAGRNFLVDERVLRQSF | 40600
VAGVKSDWDASSDEEEKPVPVAERVNGASSQKSAASKSPSKVTPMPSKTAHLV | 21300
MILLQCIPPFFLFSFLYSFVFPSPLPTIYDLSFSVSFFLFLFPWLVEIQLCCC | 52800
SSIVYLHPPLLHCLFLFPLLLLRLLAILAFSFLYLINLVLGTLGSCFSFFFRD | 34600
YAASSASPAPPRKYPPARKASPSPSPTPPRTRKSSASALRRPASTPTPPAPSP | 23200
SKWEVANKKTRDEASKGGGGKGGGGGKGGKAGEGGKEKRSEKKAAAKEGGKKK | 39600
QDALVELFGHMENFFRRLEKHIEVRPTTAMTDIIVKIMVEVLSILGIVTKEIE | 41200
KAEAEAEAQPIAAAKTPRTRKAAAKPKAAAPSPTPAIPKTQAPTASAPAAPLP | 18300
MVCRDILHFWWMFISLNANAEDIIISRSSSWLSSPLLVCFLVVCNVVCVYFYI | 72800
MGLIYLYFIFFINLLIWFSVVFCELYFFFFCLCLSNCIFEIYFYVLFFNIFLY | 51000
MVWFWFWLRYLFFFFFLFSKNTLIGLFLLLLLLLHLFLRSLPILLVCASRVFF | 53300
AKANGAAKAAAVKPKDDSSDSSDSDSESDEEKAPAKAKEAKKAEVCTCCLSTV | 17500
GELLYIILSIVDVDLICRFTIIHPIPTFDNLTALNMVIDRMQEVGLYLVYDMR | 52300
SNYSNLATRAPSGPPQFLVNNVIQHWGGVDGWIKWILKIRKAYILRRDVFLAT | 56800
IMGNLVVLLWHTKVDNIESYLADLSRCIEDFLNVTAQCAPSILILKPKFHFLL | 56300
DDSRERRRSSRKDREKDRKERKRHRHRSDDKSEDDDDRRHRKDRKRSRPSSAA | 22100
VKPASRASAKPPSTTGAKKPASRASSRKPASKVGKEDKENGDAAAASAAAPDT | 25100
AAAATGSKRKADDASDEEQEEGDKEGDNNKGEKQGGEPAGKKQKQTAGVKRVV | 27500
ADPNGAAAATTAAAPEKKAEEPVTPAKSSAAPASTSSTPASTNTTEKKKKNRL | 34700
